Measured values: PMC7801515

What was measured:
Assay in all cases: flow cytometry on cells
[1] = molecular target: SARS-CoV-2 S glycoprotein R457A, full-length, cell surface-expressed (SARS-CoV-2) (UniProt P0DTC2)
[2] = molecular target: SARS-CoV-2 S glycoprotein T415A, full-length, cell surface-expressed (SARS-CoV-2) (UniProt P0DTC2)
[3] = molecular target: SARS-CoV-2 S glycoprotein Y421A, full-length, cell surface-expressed (SARS-CoV-2) (UniProt P0DTC2)
[4] = molecular target: SARS-CoV-2 S glycoprotein Y473A, full-length, cell surface-expressed (SARS-CoV-2) (UniProt P0DTC2)

Measured: percent reduction in binding (MFI relative to wild type)

P2C-1F11 monoclonal antibody
> 50%: [1] | [2] | [3] | [4]
